The values below come from article PMC5679713 (Structure (London, England : 1993), 2017).

Where no end group is shown, it is not given here. Me3 = trimethyl-lysine

Assay [1] has as its target PHD finger of Drosophila PPS (PPS-PHD), wild type, as used in NMR and fluorescence (Drosophila). In words: other fluorescence titration.
For assay [2] the target is unchanged. In words: other fluorescence titration. The source holds these as a separate data set.
Assay [3] has the same target. In words: other fluorescence titration. This is another data set of the same source.
Assay [4] has the same target. The experiment in a line: NMR titration.
For a further assay, the target named is PPS-PHD (Drosophila melanogaster, UniProt Q9VG78). The experiment in a line: 1H,15N HSQC NMR titration, PPS-PHD. Type of assay: binding. As to conditions: pH 6.9, H3 peptide residues 1-12, 298K.
Assay [5] deals with T1, PHD finger of yeast Bye1 (Bye1-PHD), aa 47-134 (S. cerevisiae, UniProt P36106 47-134).
T1 sequence (looked up): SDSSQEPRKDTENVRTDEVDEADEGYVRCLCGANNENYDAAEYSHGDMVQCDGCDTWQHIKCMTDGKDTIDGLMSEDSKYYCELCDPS
In words: other fluorescence titration.

PPS-PHD, sequence (Q9VG78 1-2016): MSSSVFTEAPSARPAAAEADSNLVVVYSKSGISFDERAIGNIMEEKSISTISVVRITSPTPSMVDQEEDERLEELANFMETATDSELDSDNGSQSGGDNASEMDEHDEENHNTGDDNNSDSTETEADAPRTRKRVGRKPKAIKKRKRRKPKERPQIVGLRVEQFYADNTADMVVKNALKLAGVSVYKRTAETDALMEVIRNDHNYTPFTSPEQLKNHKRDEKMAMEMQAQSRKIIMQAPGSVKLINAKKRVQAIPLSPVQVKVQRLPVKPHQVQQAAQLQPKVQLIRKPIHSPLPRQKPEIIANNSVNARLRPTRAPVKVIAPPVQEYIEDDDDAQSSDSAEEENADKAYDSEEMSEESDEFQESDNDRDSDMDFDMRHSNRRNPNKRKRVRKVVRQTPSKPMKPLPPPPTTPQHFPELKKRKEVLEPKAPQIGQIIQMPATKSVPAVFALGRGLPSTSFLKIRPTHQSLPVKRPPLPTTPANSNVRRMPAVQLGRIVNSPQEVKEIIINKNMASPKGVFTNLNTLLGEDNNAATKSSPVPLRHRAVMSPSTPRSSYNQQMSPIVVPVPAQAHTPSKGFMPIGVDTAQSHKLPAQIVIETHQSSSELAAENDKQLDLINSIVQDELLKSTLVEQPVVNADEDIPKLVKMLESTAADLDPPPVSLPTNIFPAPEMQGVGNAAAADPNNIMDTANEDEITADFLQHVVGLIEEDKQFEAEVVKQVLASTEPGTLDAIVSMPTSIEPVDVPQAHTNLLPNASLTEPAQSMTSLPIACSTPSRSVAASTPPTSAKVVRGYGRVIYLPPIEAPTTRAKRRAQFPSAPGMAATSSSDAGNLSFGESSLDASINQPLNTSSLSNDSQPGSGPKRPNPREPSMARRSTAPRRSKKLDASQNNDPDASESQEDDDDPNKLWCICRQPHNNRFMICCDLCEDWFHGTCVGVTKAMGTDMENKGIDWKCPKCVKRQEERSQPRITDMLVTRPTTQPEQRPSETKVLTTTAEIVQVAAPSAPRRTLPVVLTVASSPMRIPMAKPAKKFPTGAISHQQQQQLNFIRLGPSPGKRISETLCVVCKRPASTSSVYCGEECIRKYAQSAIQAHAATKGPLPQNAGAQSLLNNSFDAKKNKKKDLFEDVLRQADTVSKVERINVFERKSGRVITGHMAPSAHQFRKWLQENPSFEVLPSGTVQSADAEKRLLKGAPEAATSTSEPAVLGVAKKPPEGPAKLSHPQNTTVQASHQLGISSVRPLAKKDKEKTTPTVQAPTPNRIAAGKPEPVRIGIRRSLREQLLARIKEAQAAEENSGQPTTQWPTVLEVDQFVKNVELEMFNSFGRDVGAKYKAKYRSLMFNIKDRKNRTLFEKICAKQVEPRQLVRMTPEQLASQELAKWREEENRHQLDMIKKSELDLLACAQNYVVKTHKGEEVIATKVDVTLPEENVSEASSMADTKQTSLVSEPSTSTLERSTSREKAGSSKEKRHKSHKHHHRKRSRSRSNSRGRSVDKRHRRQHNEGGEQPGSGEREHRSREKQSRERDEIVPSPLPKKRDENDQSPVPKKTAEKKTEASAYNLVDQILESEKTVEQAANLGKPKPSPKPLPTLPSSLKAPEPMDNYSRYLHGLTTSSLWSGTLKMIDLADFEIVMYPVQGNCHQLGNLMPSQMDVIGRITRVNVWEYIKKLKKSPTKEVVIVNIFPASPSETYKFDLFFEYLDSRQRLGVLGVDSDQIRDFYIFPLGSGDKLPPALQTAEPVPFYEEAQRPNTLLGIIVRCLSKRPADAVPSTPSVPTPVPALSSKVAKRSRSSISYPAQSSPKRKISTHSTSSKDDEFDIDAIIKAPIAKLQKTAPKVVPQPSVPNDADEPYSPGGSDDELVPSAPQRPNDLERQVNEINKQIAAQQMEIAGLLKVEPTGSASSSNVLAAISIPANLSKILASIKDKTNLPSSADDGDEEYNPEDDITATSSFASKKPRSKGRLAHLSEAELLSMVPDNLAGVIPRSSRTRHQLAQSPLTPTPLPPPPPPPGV

Turning to “histone H3K4me3 peptide (residues 1-12 of H3) (from UniProt P68431 2-13)”, the results for the Kd in assay [1], in assay [2] and in assay [3] were 17 µM, 1.9 µM and 3.6 µM, respectively.

Turning to “histone H3K4me1 peptide (residues 1-12 of H3) (from UniProt P68431 2-13)”, in assay [4], the Kd – broadly, the free concentration of one partner at which half of the binding sites on the other are occupied at equilibrium, for simple one-to-one binding – stood at 230 µM.

With “H3K4me0: H3K4me0 peptide (1–12 aa), unmethylated histone H3 tail, Synpeptide”, the “Binding by NMR chemical shift perturbations (CSPs), in words” value with PPS-PHD was “no CSPs in PPS-PHD were seen”. The “Recognition of unmethylated histone H3 tail, in words” value with PPS-PHD (NMR) was “does not recognize unmethylated histone H3 tail at all”.

B1: histone H3K4me3 peptide (residues 1-12 of H3) (peptide, UniProt P68431 2-13, looked up)
peptide: ARTK(Me3)QTARKSTG
Turning to B1, the binding result in assay [5] is “binds”.
